Source: patent publication US20090041794A1 (IMMATICS BIOTECHNOLOGIES, published 2009)

B1: iLR1 59-68 (LLAARAIVAI) (peptide)
peptide: LLAARAIVAI
notes: Synthetic peptide bought from Biosynthan, more than 90% purity; also called RPS-001
B2: iLR2 146-154 (ALCNTDSPL) (peptide)
peptide: ALCNTDSPL
notes: Synthetic peptide bought from Biosynthan, more than 90% purity; also called RPS-002

Molecular target: T1, HLA-A*0201 molecule on TAP-deficient T2 cells (human)
T1 construct: also called HLA-A2
Experiment: in vitro reconstitution (T2 whole cell-binding) assay on TAP-deficient T2 cells, compared with the Flu reference peptide

| Binder | binding result |
| --- | --- |
| B1 | binds |
| B2 | binds |
